How the values were obtained:
Assay in all cases: SPR
[1] = molecular target: fHbp V3.28 Val (at V1 Ile196) to Ala (N. meningitidis)
[2] = molecular target: fHbp V2.21 His (at V1 Ser288) to Ala (N. meningitidis)
[3] = molecular target: fHbp 1.P37 (N. meningitidis) (UniProt E6MV22)
[4] = molecular target: fHbp V1.1 Lys306 to Ala (N. meningitidis)
[5] = molecular target: fHbp V3.28 Val (at V1 Leu171) to Ala (N. meningitidis)
[6] = molecular target: fHbp V2.21 Gln (at V1 Gln103) to Ala (N. meningitidis)
[7] = molecular target: fHbp V1.1 Glu109 to Ala (N. meningitidis)
[8] = molecular target: fHbp V2.21 Arg (at V1 Arg145) to Ala (N. meningitidis)
[9] = molecular target: fHbp V1.1 Ser104 to Ala (N. meningitidis)
[10] = molecular target: fHbp V2.21 Ser (at V1 Ser302) to Ala (N. meningitidis)
[11] = molecular target: fHbp V3.28 Ser (at V1 Ser104) to Ala (N. meningitidis)
[12] = molecular target: fHbp V1.1 Lys92 to Ala (N. meningitidis)
[13] = molecular target: fHbp 2.P19 (N. meningitidis) (UniProt E6MV22)
[14] = molecular target: fHbp V3.28 Glu (at V1 Asp262) to Ala (N. meningitidis)
[15] = molecular target: fHbp V1.1 Ser182 to Ala (N. meningitidis)
[16] = molecular target: fHbp 1.P74 (N. meningitidis) (UniProt E6MV22)
[17] = molecular target: fHbp V2.21 Ala (at V1 Pro265) to Pro (N. meningitidis)
[18] = molecular target: fHbp 1.P249 (N. meningitidis) (UniProt E6MV22)
[19] = molecular target: fHbp V3.28 Gly (at V1 Glu109) to Ala (N. meningitidis)
[20] = molecular target: fHbp V2.21 Leu (at V1 Phe174) to Ala (N. meningitidis)
[21] = molecular target: fHbp V1.1 Asn108 to Ala (N. meningitidis)
[22] = molecular target: fHbp V1.1 His203 to Ala (N. meningitidis)
[23] = molecular target: fHbp V1.1 Ile147 to Ala (N. meningitidis)
[24] = molecular target: fHbp V3.28 Ala (at V1 Pro265) to Pro (N. meningitidis)
[25] = molecular target: fHbp 1.P15 (N. meningitidis) (UniProt E6MV22)
[26] = molecular target: fHbp V2.21 Lys (at V1 Lys264) to Ala (N. meningitidis)
[27] = molecular target: fHbp V2.21 Val (at V1 Ile311) to Ala (N. meningitidis)
[28] = molecular target: fHbp V3.28 Thr (at V1 Glu304) to Ala (N. meningitidis)
[29] = molecular target: fHbp V2.21 Ser (at V1 Gln193) to Ala (N. meningitidis)
[30] = molecular target: fHbp V3.28 His (at V1 His248) to Ala (N. meningitidis)
[31] = molecular target: fHbp V1.1 His313 to Ala (N. meningitidis)
[32] = molecular target: fHbp V1.1 Leu289 to Ala (N. meningitidis)
[33] = molecular target: fHbp V3.28 Phe (at V1 Phe292) to Ala (N. meningitidis)
[34] = molecular target: fHbp V3.28 Asp (at V1 Gln103) to Ala (N. meningitidis)
[35] = molecular target: fHbp V3.28 Leu (at V1 Ser274) to Ala (N. meningitidis)
[36] = molecular target: fHbp V1.1 Phe174 to Ala (N. meningitidis)
[37] = molecular target: fHbp V3.28 Lys (at V1 Lys306) to Ala (N. meningitidis)
[38] = molecular target: fHbp V3.28 Leu (at V1 Ile199) to Ala (N. meningitidis)
[39] = molecular target: fHbp V2.21 Lys (at V1 His184) to Ala (N. meningitidis)
[40] = molecular target: fHbp V3.28 Leu (at V1 Phe174) to Ala (N. meningitidis)
[41] = molecular target: fHbp V1.1 Ser302 to Ala (N. meningitidis)
[42] = molecular target: fHbp V3.28 Gln (at V1 Lys107) to Ala (N. meningitidis)
[43] = molecular target: fHbp 2.P16 (N. meningitidis) (UniProt E6MV22)
[44] = molecular target: fHbp V3.28 Ile (at V1 Ile154) to Ala (N. meningitidis)
[45] = molecular target: fHbp V3.28 Val (at V1 Val149) to Ala (N. meningitidis)
[46] = molecular target: fHbp V2.21 Ile (at V1 Ile179) to Ala (N. meningitidis)
[47] = molecular target: fHbp V2.21 Lys (at V1 Lys92) to Ala (N. meningitidis)
[48] = molecular target: fHbp 3.P84 (N. meningitidis) (UniProt E6MV22)

Chain of CFH67, CCP domains 6 and 7 of complement factor H (P08603 321-443): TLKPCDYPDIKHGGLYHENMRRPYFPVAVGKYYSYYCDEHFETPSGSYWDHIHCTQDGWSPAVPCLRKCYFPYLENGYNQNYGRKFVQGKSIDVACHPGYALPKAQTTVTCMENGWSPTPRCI

In the case of “CFHR3_(12), the first two (N-terminal) CCP domains of complement factor H-related 3 (from UniProt Q02985 19-330) (domain or fragment)”, the Kd [1] is reported as 14.8 nM, the Kd [2] is reported as 7.63 nM and the Kd [3] is reported as 7.52 nM. For the same substance, the Kd [4] was 57.7 nM, the Kd [5] was 3.81 nM and the Kd [6] was 4.01 nM. The Kd [7] was 27.9 nM, the Kd [8] was 2.88 nM and the Kd [9] was 382 nM. The Kd [10] was 6.3 nM, the Kd [11] was 7.19 nM and the Kd [12] was 71.9 nM. It also gave a Kd [13] of 2.11 nM, a Kd [14] of 6.86 nM and a Kd [15] of 83.7 nM. It also gave a Kd [16] of 56.9 nM, a Kd [17] of 4.12 nM and a Kd [18] of 32.3 nM. The Kd [19] was 1.96 nM, the Kd [20] was 3.44 nM and the Kd [21] was 90.7 nM. It also gave a Kd [22] of 32.6 nM, a Kd [23] of 174 nM and a Kd [24] of 4.82 nM. It also gave a Kd [25] of 56.4 nM, a Kd [26] of 30.2 nM and a Kd [27] of 9.68 nM. For the same substance, the Kd [28] was 17.5 nM, the Kd [29] was 3.38 nM and the Kd [30] was 3.61 nM. It also gave a Kd [31] of 50.5 nM, a Kd [32] of 18.4 nM and a Kd [33] of 2.91 nM. It also gave a Kd [34] of 2.81 nM, a Kd [35] of 20.3 nM and a Kd [36] of 338 nM. The Kd [37] was 9.34 nM, the Kd [38] was 34.6 nM and the Kd [39] was 3.13 nM. The Kd [40] was 4.78 nM, the Kd [41] was 17.2 nM and the Kd [42] was 25.3 nM. The Kd [43] was 3.74 nM, the Kd [44] was 13.7 nM and the Kd [45] was 8.28 nM. It also gave a Kd [46] of 7.84 nM, a Kd [47] of 3.06 nM and a Kd [48] of 6.08 nM.
Work on “CFH67, CCP domains 6 and 7 of complement factor H (from UniProt P08603 321-443) (domain or fragment)” yielded a Kd [1] of 11.6 nM, a Kd [2] of 6.77 nM and a Kd [3] of 1.11 nM. It also gave a Kd [4] of 2.94 nM, a Kd [5] of 3.07 nM and a Kd [6] of 6.01 nM. For the same substance, the Kd [7] was 2.93 nM, the Kd [8] was 0.408 nM and the Kd [9] was 9.78 nM. It also gave a Kd [10] of 8.39 nM, a Kd [11] of 8.99 nM and a Kd [12] of 4.4 nM. For the same substance, the Kd [13] was 1.91 nM, the Kd [14] was 6.4 nM and the Kd [15] was 4.35 nM. The Kd [16] was 5.14 nM, the Kd [17] was 3.7 nM and the Kd [18] was 5.36 nM. It also gave a Kd [19] of 2.82 nM, a Kd [20] of 0.157 nM and a Kd [21] of 3.73 nM. The Kd [22] was 1.8 nM, the Kd [23] was 17.3 nM and the Kd [24] was 3.76 nM. For the same substance, the Kd [25] was 11.7 nM, the Kd [26] was 16.7 nM and the Kd [27] was 6.07 nM. The Kd [28] was 11.7 nM, the Kd [29] was 3.95 nM and the Kd [30] was 2.97 nM. For the same substance, the Kd [31] was 23.5 nM, the Kd [32] was 1.44 nM and the Kd [33] was 1.97 nM. It also gave a Kd [34] of 2.7 nM, a Kd [35] of 18.5 nM and a Kd [36] of 3.21 nM. For the same substance, the Kd [37] was 10.7 nM, the Kd [38] was 25.8 nM and the Kd [39] was 3.15 nM. The Kd [40] was 4.8 nM, the Kd [41] was 0.592 nM and the Kd [42] was 46.4 nM. The Kd [43] was 3.46 nM, the Kd [44] was 14.3 nM and the Kd [45] was 6.81 nM. It also gave a Kd [46] of 12 nM, a Kd [47] of 2.73 nM and a Kd [48] of 2.64 nM.
